Laboratory results as given in patent US20230235048A1.

Target: human sortilin on the cell surface (recombinant huSortilin on HEK 293 cells; endogenous on U251MG cells) (human), Q99523
Test: flow cytometry, hPGRN-biotin on hSortilin HEK cells clone A (note under the bar chart)
Settings: remark: other sources report otherwise

Chain of human sortilin on the cell surface (recombinant huSortilin on HEK 293 cells; endogenous on U251MG cells) (human), Q99523 (Q99523 78-831): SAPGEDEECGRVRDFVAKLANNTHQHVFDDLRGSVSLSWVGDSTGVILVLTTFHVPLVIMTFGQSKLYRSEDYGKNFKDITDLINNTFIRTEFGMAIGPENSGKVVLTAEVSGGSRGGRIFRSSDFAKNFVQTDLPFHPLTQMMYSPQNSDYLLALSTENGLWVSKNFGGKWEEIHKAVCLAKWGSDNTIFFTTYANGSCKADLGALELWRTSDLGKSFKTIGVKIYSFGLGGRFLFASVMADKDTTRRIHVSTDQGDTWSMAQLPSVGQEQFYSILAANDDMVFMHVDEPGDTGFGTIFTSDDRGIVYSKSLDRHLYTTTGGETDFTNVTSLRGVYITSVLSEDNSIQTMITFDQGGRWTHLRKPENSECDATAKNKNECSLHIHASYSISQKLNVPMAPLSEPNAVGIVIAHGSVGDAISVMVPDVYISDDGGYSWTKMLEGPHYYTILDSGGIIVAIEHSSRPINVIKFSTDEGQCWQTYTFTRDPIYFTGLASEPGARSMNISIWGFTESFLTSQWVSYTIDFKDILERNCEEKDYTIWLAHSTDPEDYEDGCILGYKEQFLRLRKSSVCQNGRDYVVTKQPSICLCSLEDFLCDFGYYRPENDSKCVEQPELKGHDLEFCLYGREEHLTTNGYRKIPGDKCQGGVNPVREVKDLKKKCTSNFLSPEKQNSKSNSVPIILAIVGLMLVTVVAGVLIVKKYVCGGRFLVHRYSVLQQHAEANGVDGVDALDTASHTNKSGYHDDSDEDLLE

- ED50: 0.03 µM
B1: human progranulin, biotinylated (huPGRN-Biotin), P28799 18-593 (ligand, UniProt P28799 18-593, looked up)
chain: TRCPDGQFCPVACCLDPGGASYSCCRPLLDKWPTTLSRHLGGPCQVDAHCSAGHSCIFTVSGTSSCCPFPEAVACGDGHHCCPRGFHCSADGRSCFQRSGNNSVGAIQCPDSQFECPDFSTCCVMVDGSWGCCPMPQASCCEDRVHCCPHGAFCDLVHTRCITPTGTHPLAKKLPAQRTNRAVALSSSVMCPDARSRCPDGSTCCELPSGKYGCCPMPNATCCSDHLHCCPQDTVCDLIQSKCLSKENATTDLLTKLPAHTVGDVKCDMEVSCPDGYTCCRLQSGAWGCCPFTQAVCCEDHIHCCPAGFTCDTQKGTCEQGPHQVPWMEKAPAHLSLPDPQALKRDVPCDNVSSCPSSDTCCQLTSGEWGCCPIPEAVCCSDHQHCCPQGYTCVAEGQCQRGSEIVAGLEKMPARRASLSHPRDIGCDQHTSCPVGQTCCPSLGGSWACCQLPHAVCCEDRQHCCPAGYTCNVKARSCEKEVVSAQPATFLARSPHVGVKDVECGEGHFCHDNQTCCRDNRQGWACCPYRQGVCCADRRHCCPAGFRCAARGTKCLRREAPRWDAPLRDPALRQLL
modifications: here or on the partner: biotinylated at a ratio of 5:1 using EZ-Link NHS-PEG4-Biotin
